Laboratory results from the Immune Epitope Database (IEDB).

Legend:
HLA-A*02:06 = assay: IEDB peptide-MHC binding, purified MHC/competitive/fluorescence; filed as Kd, often an IC50 or EC50 that approximates it; ≥ and ≤ were set here for values at or beyond the usual limits of such assays
HLA-A*69:01 [1] = assay: as above
HLA-A*02:11 = assay: as above
HLA-A*02:01 [2] = assay: as above
HLA-A*02:03 [3] = assay: as above
HLA-A*02:12 [4] = assay: as above
HLA-A*02:19 [5] = assay: as above
HLA-A*02:16 [6] = assay: as above
HLA-B*48:01 = assay: as above
HLA-A*03:01 [7] = assay: as above
HLA-A*26:01 [8] = assay: as above; conditions: source organism: Yersinia mollaretii ATCC 43969
HLA-B*39:01 = assay: as above
HLA-A*24:03 [9] = assay: as above
HLA-B*15:17 [10] = assay: as above; conditions: source organism: Yersinia mollaretii ATCC 43969
HLA-B*15:01 [11] = assay: as above; conditions: source organism: Yersinia mollaretii ATCC 43969
HLA-B*27:03 [12] = assay: as above
HLA-B*46:01 [13] = assay: as above
HLA-A*29:02 [14] = assay: as above
HLA-B*18:01 [15] = assay: as above
HLA-A*68:02 [16] = assay: as above; conditions: source organism: Yersinia mollaretii ATCC 43969
HLA-B*57:01 [17] = assay: as above; conditions: source organism: Yersinia mollaretii ATCC 43969
HLA-B*51:01 [18] = assay: as above; conditions: source organism: Yersinia mollaretii ATCC 43969
HLA-A*03:01 [19] = assay: IEDB peptide-MHC binding, purified MHC/direct/fluorescence; filed as Kd, often an IC50 or EC50 that approximates it; ≥ and ≤ were set here for values at or beyond the usual limits of such assays
HLA-A*26:01 [20] = assay: as above
HLA-A*23:01 [21] = assay: as above; conditions: source organism: Brucella suis 1330
HLA-A*24:03 [22] = assay: as above; conditions: source organism: Brucella suis 1330
HLA-A*69:01 [23] = assay: as above; conditions: source organism: Brucella suis 1330
HLA-B*15:17 [24] = assay: as above; conditions: source organism: Brucella suis 1330
HLA-B*15:01 [25] = assay: as above
HLA-B*27:03 [26] = assay: as above
HLA-B*46:01 [27] = assay: as above
HLA-A*29:02 [28] = assay: as above; conditions: source organism: Brucella suis 1330
HLA-A*02:01 [29] = assay: as above
HLA-A*02:03 [30] = assay: as above
HLA-B*18:01 [31] = assay: as above
HLA-A*68:02 [32] = assay: as above
HLA-B*57:01 [33] = assay: as above
HLA-A*02:12 [34] = assay: as above
HLA-B*51:01 [35] = assay: as above
HLA-A*02:19 [36] = assay: as above
HLA-A*02:16 [37] = assay: as above
HLA-A*23:01 [38] = assay: IEDB peptide-MHC binding, purified MHC/competitive/fluorescence; filed as Kd, often an IC50 or EC50 that approximates it; ≥ and ≤ were set here for values at or beyond the usual limits of such assays; conditions: source organism: Vibrio vulnificus YJ016
HLA-C*03:03 = assay: IEDB peptide-MHC binding, purified MHC/direct/fluorescence; filed as Kd, often an IC50 or EC50 that approximates it; ≥ and ≤ were set here for values at or beyond the usual limits of such assays; conditions: source organism: Mycobacterium tuberculosis variant bovis BCG str. Pasteur 1173P2
HLA-C*05:01 = assay: as above; conditions: source organism: Mycobacterium tuberculosis variant bovis BCG str. Pasteur 1173P2
[39] = source organism: Human immunodeficiency virus 1
[40] = source organism: Yersinia mollaretii ATCC 43969
[41] = source organism: Brucella suis 1330
[42] = source organism: Vibrio vulnificus YJ016
[43] = source organism: Mycobacterium tuberculosis variant bovis BCG str. Pasteur 1173P2
[44] = source organism: Vibrio cholerae V52

FLGKIWSS
Kd (HLA-A*02:06; [39]): ≤ 0.0001 µM
Kd (HLA-A*69:01 [1]; [39]): ≥ 5 µM
Kd (HLA-A*02:11; [39]): ≤ 0.0001 µM
Kd (HLA-A*02:01 [2]; [39]): 0.0075 µM
Kd (HLA-A*02:03 [3]; [39]): 0.00138 µM
Kd (HLA-A*02:12 [4]; [39]): 0.0005 µM
Kd (HLA-A*02:19 [5]; [39]): 0.00233 µM
Kd (HLA-A*02:16 [6]; [39]): ≤ 0.0001 µM

RRLRTLVLA
Kd (HLA-B*48:01; source organism: Tick-borne encephalitis virus): ≥ 20 µM

DEQEFFYSQ
Kd (HLA-A*03:01 [7]; [40]): ≥ 20 µM
Kd (HLA-A*26:01 [8]): ≥ 20 µM
Kd (HLA-B*39:01; [40]): ≥ 20 µM
Kd (HLA-A*24:03 [9]; [40]): ≥ 20 µM
Kd (HLA-A*69:01 [1]; [40]): ≥ 20 µM
Kd (HLA-B*15:17 [10]): ≥ 20 µM
Kd (HLA-B*15:01 [11]): ≥ 20 µM
Kd (HLA-B*27:03 [12]; [40]): ≥ 20 µM
Kd (HLA-A*02:11; [40]): ≥ 20 µM
Kd (HLA-B*46:01 [13]; [40]): ≥ 20 µM
Kd (HLA-A*29:02 [14]; [40]): ≥ 20 µM
Kd (HLA-A*02:01 [2]; [40]): ≥ 20 µM
Kd (HLA-A*02:03 [3]; [40]): ≥ 20 µM
Kd (HLA-B*18:01 [15]; [40]): 0.0003 µM
Kd (HLA-A*68:02 [16]): ≥ 20 µM
Kd (HLA-B*57:01 [17]): ≥ 20 µM
Kd (HLA-A*02:12 [4]; [40]): ≥ 20 µM
Kd (HLA-B*51:01 [18]): ≥ 20 µM
Kd (HLA-A*02:19 [5]; [40]): ≥ 20 µM
Kd (HLA-A*02:16 [6]; [40]): ≥ 20 µM

MHCDFAFWV
Kd (HLA-A*03:01 [19]; [41]): ≥ 20 µM
Kd (HLA-A*26:01 [20]; [41]): ≥ 20 µM
Kd (HLA-A*23:01 [21]): ≥ 20 µM
Kd (HLA-A*24:03 [22]): ≥ 20 µM
Kd (HLA-A*69:01 [23]): ≥ 20 µM
Kd (HLA-B*15:17 [24]): ≥ 20 µM
Kd (HLA-B*15:01 [25]; [41]): ≥ 20 µM
Kd (HLA-B*27:03 [26]; [41]): ≥ 20 µM
Kd (HLA-B*46:01 [27]; [41]): ≥ 20 µM
Kd (HLA-A*29:02 [28]): ≥ 20 µM
Kd (HLA-A*02:01 [29]; [41]): ≥ 20 µM
Kd (HLA-A*02:03 [30]; [41]): ≥ 20 µM
Kd (HLA-B*18:01 [31]; [41]): ≥ 20 µM
Kd (HLA-A*68:02 [32]; [41]): ≥ 20 µM
Kd (HLA-B*57:01 [33]; [41]): ≥ 20 µM
Kd (HLA-A*02:12 [34]; [41]): ≥ 20 µM
Kd (HLA-B*51:01 [35]; [41]): ≥ 20 µM
Kd (HLA-A*02:19 [36]; [41]): ≥ 20 µM
Kd (HLA-A*02:16 [37]; [41]): ≥ 20 µM

KRAAAGIMK
Kd (HLA-B*48:01; source organism: Dengue virus 2 Thailand/NGS-C/1944): ≥ 20 µM

HTSALSLGY
Kd (HLA-A*03:01 [7]; [42]): 0.0179 µM
Kd (HLA-B*39:01; [42]): ≥ 20 µM
Kd (HLA-A*23:01 [38]): ≥ 20 µM
Kd (HLA-A*24:03 [9]; [42]): ≥ 20 µM
Kd (HLA-A*69:01 [1]; [42]): ≥ 20 µM
Kd (HLA-B*27:03 [12]; [42]): ≥ 20 µM
Kd (HLA-A*02:11; [42]): ≥ 20 µM
Kd (HLA-B*46:01 [13]; [42]): ≥ 20 µM
Kd (HLA-A*29:02 [14]; [42]): ≤ 0.0001 µM
Kd (HLA-A*02:01 [2]; [42]): ≥ 20 µM
Kd (HLA-A*02:03 [3]; [42]): ≥ 20 µM
Kd (HLA-B*18:01 [15]; [42]): ≥ 20 µM
Kd (HLA-A*02:12 [4]; [42]): ≥ 20 µM
Kd (HLA-A*02:19 [5]; [42]): ≥ 20 µM
Kd (HLA-A*02:16 [6]; [42]): ≥ 20 µM

YLAEGHACL
Kd (HLA-A*02:06; [43]): ≤ 0.001 µM
Kd (HLA-A*69:01 [1]; [43]): 0.378 µM
Kd (HLA-A*02:11; [43]): ≤ 0.001 µM
Kd (HLA-A*02:03 [3]; [43]): ≤ 0.001 µM
Kd (HLA-A*02:12 [4]; [43]): 0.0026 µM
Kd (HLA-A*02:19 [5]; [43]): 0.0033 µM
Kd (HLA-A*02:16 [6]; [43]): ≤ 0.001 µM
Kd (HLA-C*03:03): 0.002 µM
Kd (HLA-C*05:01): 0.151 µM

LPYPVLLKI
Kd (HLA-A*03:01 [19]; [44]): ≥ 20 µM
Kd (HLA-A*26:01 [20]; [44]): ≥ 20 µM
Kd (HLA-B*15:01 [25]; [44]): ≥ 20 µM
Kd (HLA-B*27:03 [26]; [44]): ≥ 20 µM
Kd (HLA-B*46:01 [27]; [44]): ≥ 20 µM
Kd (HLA-A*02:01 [29]; [44]): ≥ 20 µM
Kd (HLA-A*02:03 [30]; [44]): ≥ 20 µM
Kd (HLA-B*18:01 [31]; [44]): ≥ 20 µM
Kd (HLA-A*68:02 [32]; [44]): ≥ 20 µM
Kd (HLA-B*57:01 [33]; [44]): ≥ 20 µM
Kd (HLA-A*02:12 [34]; [44]): ≥ 20 µM
Kd (HLA-B*51:01 [35]; [44]): 0.054 µM
Kd (HLA-A*02:19 [36]; [44]): ≥ 20 µM
Kd (HLA-A*02:16 [37]; [44]): ≥ 20 µM
